One molecule from article PMC12756210, “Calcium signaling-mediated phosphorylation controls zinc allocation in Arabidopsis” (Stress Biology, 2025) can be followed below.

One assay concerns the target T1, CIPK23-His (Arabidopsis, UniProt Q93VD3 1-482).
T1 construct: amplified and cloned into pET30a; Printed both as CIPK3/9/23/26-His and as His-CIPK3/9/23/26, so the end of the tag is open; also called His-CIPK23; source: recombinant, cloned into pET30a
T1 sequence (looked up): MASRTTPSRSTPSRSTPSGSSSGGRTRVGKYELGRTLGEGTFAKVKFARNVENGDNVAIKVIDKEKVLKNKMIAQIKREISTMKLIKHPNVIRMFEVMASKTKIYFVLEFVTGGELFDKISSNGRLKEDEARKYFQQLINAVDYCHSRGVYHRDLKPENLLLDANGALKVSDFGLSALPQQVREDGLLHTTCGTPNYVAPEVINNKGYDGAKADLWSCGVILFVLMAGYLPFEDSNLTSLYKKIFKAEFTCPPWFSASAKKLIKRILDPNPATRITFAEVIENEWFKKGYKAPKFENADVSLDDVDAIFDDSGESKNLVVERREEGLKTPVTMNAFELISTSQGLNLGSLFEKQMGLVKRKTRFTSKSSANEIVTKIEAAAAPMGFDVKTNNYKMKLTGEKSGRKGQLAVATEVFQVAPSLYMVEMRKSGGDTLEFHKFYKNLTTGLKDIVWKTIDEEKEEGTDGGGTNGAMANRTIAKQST
Nature of the assay: pull-down; GST-ZIP2-Loop (or GST) on glutathione beads incubated with His-CIPK3/9/23/26; eluate blotted with anti-His antibody. As to conditions: both partners purified.

In another assay the target is T2, CIPK26-His (Arabidopsis, UniProt Q84VQ3 1-439).
T2 construct: amplified and cloned into pET30a; Printed both as CIPK3/9/23/26-His and as His-CIPK3/9/23/26, so the end of the tag is open; also called His-CIPK26; source: recombinant, cloned into pET30a
T2 sequence (looked up): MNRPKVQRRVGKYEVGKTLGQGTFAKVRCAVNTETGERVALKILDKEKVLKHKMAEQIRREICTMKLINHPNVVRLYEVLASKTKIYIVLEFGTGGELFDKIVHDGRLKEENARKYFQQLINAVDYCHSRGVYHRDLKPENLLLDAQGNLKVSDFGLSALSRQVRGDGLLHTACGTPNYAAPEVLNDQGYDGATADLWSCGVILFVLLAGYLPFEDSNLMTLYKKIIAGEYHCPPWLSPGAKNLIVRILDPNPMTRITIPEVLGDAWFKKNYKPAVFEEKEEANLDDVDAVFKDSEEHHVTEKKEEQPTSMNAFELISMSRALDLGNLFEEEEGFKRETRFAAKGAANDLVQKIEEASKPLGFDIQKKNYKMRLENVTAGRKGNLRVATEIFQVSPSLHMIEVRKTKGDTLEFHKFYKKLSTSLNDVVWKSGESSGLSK
The assay is described as above. The conditions noted are these: both partners purified.

B1: GST-ZIP2-Loop (domain or fragment, Arabidopsis, UniProt Q9LTH9 151-203, looked up)
chain: VAAGSNNNHVGASVGESREDDDVAVKEEGRREIKSGVDVSQALIRTSGFGDTA
notes: Zn transporter ZIP2, Arabidopsis; the largest Loop domain, residues 151-203 (451-609 bp of the CDS); Printed as GST-ZIP2-Loop and as ZIP2-Loop-GST; pGEX4T-1 normally places GST at the N-terminus (surmised); also called ZIP2-Loop-GST; source: prokaryotic fusion protein (pGEX4T-1), purified
Regarding B1, the binding result with CIPK23-His and with CIPK26-His was “binds” each time.
